The text below walks through data of IntAct's records for PubMed 20818336.

The chains are these.
B1: Myocardin-related transcription factor A (Mus musculus), Q8K4J6 (parent)
chain: MTLLEPEMLMMAVQSVLQLKLQQRRTREELVSQGIMPPLKSPAAFHEQRRSLERARTEDYLKRKIRSRPERAELVRMHILEETSAEPSLQAKQLKLKRARLADDLNEKIAQRPGPMELVEKNILPVESSLKEAIIVGQVNYPKVADSSSFDEDSSDALSPEQPASHESQGSVPSPLESRVSDPLPSATSISPTQVLSQLPMAPDPGETLFLAEQPPLPPAPLLPPSLANGSIVPTAKPAPTLIKQSQPKSASEKSQRSKKAKELKPKVKKLKYHQYIPPDQKQDKGAPAMDSSYAKILQQQQLFLQLQILNQQQQQQQQQHYNYQAILPAPPKPSAETPGSSAPTPSRSLSTSSSPSSGTPGPSGLARQSSTALAAKPGALPANLDDMKVAELKQELKLRSLPVSGTKTELIERLRAYQDQVSPAPGAPKAPATTSVLSKAGEVVVAFPAALLSTGSALVTAGLAPAEMVVATVTSNGMVKFGSTGSTPPVSPTPSERSLLSTGDENSTPGDAFGEMVTSPLTQLTLQASPLQIVKEEGARAASCCLSPGARAELEGLDKDQMLQEKDKQIEELTRMLQQKQQLVELLRLQLEQQKRAQQPAPASSPVKRESGFSSCQLSCQPQGSAHAFGSGLVVPTTNHGDTQAPAPESPPVVVKQEAGPPEPDLAPSSQLLLGSQGTSFLKRVSPPTLVTDSTGTHLILTVTNKSADGPGLPAGSPQQPLSQPGSPAPGPPAQMDLEHPPQPPFATPTSLLKKEPPGYEETVTQQPKQQENGSSSQHMDDLFDILIQSGEISADFKEPPSLPGKEKSPPAAAAYGPPLTPQPSPLSELPQAAPPPGSPTLPGRLEDFLESSTGLPLLTSGHEGPEPLSLIDDLHSQMLSSSAILDHPPSPMDTSELHFAPEPSSGMGLDLAVGHLDSMDWLELSSGGPVLSLAPLSTAAPSLFSMDFLDGHDLQLHWDSCL
B2: Importin subunit alpha-3 (Homo sapiens), O00629 (parent)
chain: MADNEKLDNQRLKNFKNKGRDLETMRRQRNEVVVELRKNKRDEHLLKRRNVPHEDICEDSDIDGDYRVQNTSLEAIVQNASSDNQGIQLSAVQAARKLLSSDRNPPIDDLIKSGILPILVHCLERDDNPSLQFEAAWALTNIASGTSEQTQAVVQSNAVPLFLRLLHSPHQNVCEQAVWALGNIIGDGPQCRDYVISLGVVKPLLSFISPSIPITFLRNVTWVMVNLCRHKDPPPPMETIQEILPALCVLIHHTDVNILVDTVWALSYLTDAGNEQIQMVIDSGIVPHLVPLLSHQEVKVQTAALRAVGNIVTGTDEQTQVVLNCDALSHFPALLTHPKEKINKEAVWFLSNITAGNQQQVQAVIDANLVPMIIHLLDKGDFGTQKEAAWAISNLTISGRKDQVAYLIQQNVIPPFCNLLTVKDAQVVQVVLDGLSNILKMAEDEAETIGNLIEECGGLEKIEQLQNHENEDIYKLAYEIIDQFFSSDDIDEDPSLVPEAIQGGTFGFNSSANVPTEGFQF
partner: B1 chain

One assay covers variants of B1. The conditions noted are these: with ima3_human KPNA4, O00629.
For K95A;L96A;K97A, the “effect of a mutation on the interaction” value is “decreasing interaction strength”. K62A;R63A;K64A: the “effect of a mutation on the interaction” value is given as “decreasing interaction strength”. The same measure, in the same setting: next, K62A;R63A;K64A;K95A;L96A;K97A: “disrupting interaction strength”.

Variants of B1 are the subject of the next assay. The conditions noted are these: with imb1_human KPNB1, Q14974.
Sequence of imb1_human KPNB1, Q14974 (Q14974 whole entry): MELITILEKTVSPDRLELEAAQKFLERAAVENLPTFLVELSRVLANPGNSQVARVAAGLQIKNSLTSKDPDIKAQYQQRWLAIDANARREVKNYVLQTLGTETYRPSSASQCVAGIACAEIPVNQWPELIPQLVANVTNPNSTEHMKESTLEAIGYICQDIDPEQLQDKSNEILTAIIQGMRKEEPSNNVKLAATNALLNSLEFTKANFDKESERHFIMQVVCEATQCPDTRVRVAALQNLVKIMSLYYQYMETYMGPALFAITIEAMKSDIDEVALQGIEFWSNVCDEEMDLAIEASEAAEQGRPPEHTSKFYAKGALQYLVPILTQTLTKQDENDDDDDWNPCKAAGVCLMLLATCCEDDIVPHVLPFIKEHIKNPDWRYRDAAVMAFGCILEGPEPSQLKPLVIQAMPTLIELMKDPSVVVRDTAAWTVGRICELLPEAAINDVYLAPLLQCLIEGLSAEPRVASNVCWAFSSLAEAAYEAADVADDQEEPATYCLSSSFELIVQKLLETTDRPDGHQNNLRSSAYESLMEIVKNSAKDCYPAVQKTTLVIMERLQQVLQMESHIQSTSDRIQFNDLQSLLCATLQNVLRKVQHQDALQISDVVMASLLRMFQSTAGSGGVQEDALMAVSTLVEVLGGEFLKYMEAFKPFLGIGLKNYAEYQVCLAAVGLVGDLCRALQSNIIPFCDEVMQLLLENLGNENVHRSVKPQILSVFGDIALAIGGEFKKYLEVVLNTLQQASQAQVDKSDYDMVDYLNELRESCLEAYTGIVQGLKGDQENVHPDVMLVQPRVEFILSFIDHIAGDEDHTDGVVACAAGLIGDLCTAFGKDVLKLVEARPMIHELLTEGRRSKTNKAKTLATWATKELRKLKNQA
As to K95A;L96A;K97A, the “effect of a mutation on the interaction” value is “disrupting interaction strength”. Regarding K62A;R63A;K64A, the “effect of a mutation on the interaction” value is listed as “decreasing interaction strength”.

In a further assay the parent is B2. Conditions: with mrtfa_mouse Mrtfa.
On to W390A;N394A, for which the “effect of a mutation on the interaction” value was “decreasing interaction strength”. The same measure, in the same setting: under W179A;N183A;W390A;N394A stands “decreasing interaction strength”; under W179A;N183A, “decreasing interaction strength”.
